This is an account of results in patent US9228020B2, “Compositions and methods for diagnosing and treating cancer” (OncoMed Pharmaceuticals, Inc., priority 2006, dated 2016).

Residue numbers refer to the chain shown, from its start.

This assay addresses T1, DLL4 antigen (Homo sapiens, UniProt Q9NR61).
T1 construct: DLL4 antigen protein comprises approximately amino acid 27 through amino acid 522; made in house; host or cells: insect cells (baculovirus)
The experiment in a line: ELISA of conditioned media for DLL4 antigen binding (humanized variants). Conditions: conditioned media of cotransfected HEK293 cells. On the procedure: The functionality of each candidate variant humanized heavy and light chain was tested by cotransfection into mammalian cells. Each of the five candidate humanized 21M18 heavy chains described above was cotransfected with the murine 21M18 light chain cDNA into HEK 293 cells, and conditioned media was then assayed for DLL4 antigen binding activity by ELISA. […] This variant—“21M18 H2”—contained, in additional to murine CDRs, murine residues at five framework positions, Kabat positions 20, 28, 38, 48, and 69 (FIG. 4). The 21M18 H2 humanized heavy chain was then cotransfected with each of the five candidate humanized light chains into HEK293 cells, and conditioned media was again assayed for antigen binding by ELISA.
Next, the isolated cysteine residue in CDR2H2 (SEQ ID NO: 2) was altered. Specifically, two heavy chain variants of H2 were synthesized with the cysteine residue at Kabat position 52a modified to a serine (variant H7; SEQ ID NO: 3) or a valine (variant H9; SEQ ID NO: 4) residue. These heavy chains were cotransfected into HEK293 cells with L2, and conditioned media was again assayed. […] Thus 21M18 heavy chain CDR2 comprises SEQ ID NO: 2, 3, or 4 in which the residue at Kabat position 52a comprises a cysteine, serine, or valine residue.
(In general: ELISA stands for enzyme-linked immunosorbent assay.)

T1 sequence (Q9NR61 27-522): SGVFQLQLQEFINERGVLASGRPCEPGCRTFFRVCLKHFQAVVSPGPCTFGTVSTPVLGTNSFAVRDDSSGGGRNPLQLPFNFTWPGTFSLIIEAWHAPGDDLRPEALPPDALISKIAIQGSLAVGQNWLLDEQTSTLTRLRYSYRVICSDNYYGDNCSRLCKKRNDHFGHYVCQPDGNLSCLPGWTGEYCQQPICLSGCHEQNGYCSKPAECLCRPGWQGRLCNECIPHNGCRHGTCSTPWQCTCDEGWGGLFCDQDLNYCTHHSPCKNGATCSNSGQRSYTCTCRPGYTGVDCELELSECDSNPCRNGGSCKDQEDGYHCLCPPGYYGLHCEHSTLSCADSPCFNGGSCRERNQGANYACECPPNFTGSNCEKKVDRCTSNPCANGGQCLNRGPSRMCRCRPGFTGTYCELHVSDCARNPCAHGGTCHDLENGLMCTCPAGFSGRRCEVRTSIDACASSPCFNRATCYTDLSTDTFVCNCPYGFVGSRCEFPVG

B1: 21M18 H7L2: humanized 21M18, heavy chain Kabat position 52a serine (H7) with L2; ATCC deposit no. PTA-8425 (antibody, V domains shown)
VH: QVQLVQSGAEVKKPGASVKISCKASGYSFTAYYIHWVKQAPGQGLEWIGYISSYNGATNYNQKFKGRVTFTTDTSTSTAYMELRSLRSDDTAVYYCARDYDYDVGMDYWGQGTLVTVSS
VL: DIVMTQSPDSLAVSLGERATISCRASESVDNYGISFMKWFQQKPGQPPKLLIYAASNQGSGVPDRFSGSGSGTDFTLTISSLQAEDVAVYYCQQSKEVPWTFGGGTKVEIK
With B1, the “antigen binding by ELISA” value is recorded as “demonstrated specific antigen binding”.

B2: 21M18 H9L2: humanized 21M18, heavy chain Kabat position 52a valine (H9) with L2; ATCC deposit no. PTA-8427 (antibody, V domains shown)
VH: B1 VH with S53V
VL: B1 VL
On to B2, for which the “antigen binding by ELISA” value was “demonstrated specific antigen binding”.
